This series deals with the molecule itself. As to the kind of experiment: native MS.

Where a chain is given by its changes, count along the chain named. Names may count otherwise.

B1: AAV1 VP3 (VP3M, VP3 203-736) of the AAV1-VP3-only capsid (natural protein, adeno-associated virus serotype 1 (AAV1), UniProt Q9WBP8 204-736, looked up)
chain: ASGGGAPMADNNEGADGVGNASGNWHCDSTWLGDRVITTSTRTWALPTYNNHLYKQISSASTGASNDNHYFGYSTPWGYFDFNRFHCHFSPRDWQRLINNNWGFRPKRLNFKLFNIQVKEVTTNDGVTTIANNLTSTVQVFSDSEYQLPYVLGSAHQGCLPPFPADVFMIPQYGYLTLNNGSQAVGRSSFYCLEYFPSQMLRTGNNFTFSYTFEEVPFHSSYAHSQSLDRLMNPLIDQYLYYLNRTQNQSGSAQNKDLLFSRGSPAGMSVQPKNWLPGPCYRQQRVSKTKTDNNNSNFTWTGASKYNLNGRESIINPGTAMASHKDDEDKFFPMSGVMIFGKESAGASNTALDNVMITDEEEIKATNPVATERFGTVAVNFQSSSTDPATGDVHAMGALPGMVWQDRDVYLQGPIWAKIPHTDGHFHPSPLMGGFGLKNPPPQILIKNTPVPANPPAEFSATKFASFITQYSTGQVSVEIEWELQKENSKRWNPEVQYTSNYAKSANVDFTVDNNGLYTEPRPIGTRYLTRPL
modifications: N-terminal methionine M203 removed; A204 acetylated at the N terminus
Broadly, the stoichiometry N is a count of units in the complex or per binding partner. As for B1, the “stoichiometry N” value amounted to 60.

B2: AAV1-M211V-VP3 (VP3 of the AAV1-M211V-VP3-only capsid) (natural protein, adeno-associated virus serotype 1 (AAV1), UniProt Q9WBP8 204-736, looked up)
chain: B1 chain with M8V
modifications: N-terminal acetylation (NTA)
With B2, the binding result is given as “binds”.

Source of the values: article PMC10238842 (Molecular Therapy. Methods & Clinical Development, 2023).
